Measured values reported in US6570069B1, “Nucleic acids encoding plant inhibitors of apoptosis and transgenic cells and plants expressing them” (priority 2000, dated 2003).
“Also recorded” adds a separate entry of the source.

B1: SfIAP: cellular IAP cloned from Spodoptera frugiperda, protein of 377 amino acids (SEQ ID NO:3); GST-fusion when recombinant (protein, listed as Spodoptera frugiperda)
chain: MWSCSLPCWNTKKSGLQMDITKVASNGSSSTLTLFKSGSLEAKIRPLAPLMLPTPSYDSNAGSPSLSPSTPCSSSSFSIDKTDNHDTFGFSADTVDMRKEDERMKTFEKWPVSFLSGEQLARNGFYYLGRRDEARCAFCKVEIMRWVEGDDPAKDHQRWAPQCPFVRKLNGTAAADTGSSGQDECGARAAPSGTSPPRMAGPVHPRYASEAARLRSFKDWPRCMRQKPEELAEAGFFYTGQGDKTKCFYCDGGLKDWENHDVPWEQHARWFDRCAYVQLVKGREYVQKVISEACEVSASEAERDVAPARTAEPSPPAEAPENSVDDSKLCKICYAEERNVCFVPCGHVVACAKCALAADKCPMCRRTFQNAVRLYFS
modifications: GST fusion when recombinant; fall armyworm inhibitor of apoptosis protein (SfIAP)
B2: CpIAP: baculoviral (CpGV) inhibitor of apoptosis protein; complete ORF expressed myc-tagged or as GST-fusion (protein)
chain: MSDLRLEEVRLNTFEKWPVSFLSPETMAKNGFYYLGRSDEVRCAFCKVEIMRWKEGEDPAADHKKWAPQCPFVKGIDVCGSIVTTNNIQNTTTHDTIIGPAHPKYAHEAARVKSFHNWPRCMKQRPEQMADAGFFYTGYGDNTKCFYCDGGLKDWEPEDVPWEQHVRWFDRCAYVQLVKGRDYVQKVITEACVLPGENTTVSTAAPVSEPIPETKIEKEPQVEDSKLCKICYVEECIVCFVPCGHVVACAKCALSVDKCPMCRKIVTSVLKVYFS
modifications: left off: a dimerising Fc or GST
notes: complete ORF expressed myc-tagged or as GST-fusion

Columns and labels:
[1] = tested on: apoptosis induced by AcMNPV p35 mutant virus in Sf-21 cells; assay: Rescue of AcMNPV p35-deleted virus in Sf-21 cells (occlusion body formation); format: cell-based, Spodoptera frugiperda; conditions: plasmid co-transfected with AcMNPV p35 mutant viral DNA into Sf-21 cells; observed 72 hrs post-transfection
Description: Insect Sf-21 cells were maintained at 27° C. in Excell 401 media (JHR Bioscience) supplemented with 2.5% fetal bovine serum. vP35del, containing a deletion in the p35 gene, was propagated in TN-368 cells (Clem, R. J., et al., (1991) Science 254, 1388-1390). Plasmids encoding full-length or deletion mutants of SfIAP (1 μg) were co-transfected with 1 μg vP35del viral DNA into Sf-21 cells using Lipofectin from Gibco. Occlusion body formation was observed under light microscopy 3 days post-transfection.
SfIAP was tested to see if it also complements. p35-deficiency, preventing apoptosis by this mutant virus, thereby allowing its replication in insect cells. Plasmids containing full-length SfIAP or fragments of SfIAP comprising the two BIRs or the RING domain were co-transfected with AcMNPV p35 mutant viral DNA into Sf-21 cells. Cells were observed 72 hrs post-transfection. […] Thus, analogous to CpIAP and OpIAP, BIR and RING domains of SfIAP are required in combination for inhibition of apoptosis induced by AcMNPV p35 mutant virus.

[2] = tested on: Fas-induced apoptosis in HEK293 cells; assay: Fas-induced apoptosis in HEK293 cells (co-transfection, DAPI nuclear morphology); format: cell-based, human; conditions: IAP plasmid co-transfected with Fas into HEK293 cells; % apoptosis 24-36 hours later
Description: (§1) HEK293 and 293T cells were maintained in DMEM (Irvine Scientific) supplemented with 10% fetal bovine serum, 1 mM L-glutamine and antibiotics. 293 cells (10^6) were co-transfected using Superfect with 0.1 μg Green Fluoresence Protein (GFP) marker plasmid pEGFP (Clontech), 0.25 ug of either pcDNA3-Bax or pcDNA3-Fas, and 1.5 μg of either pcDNA3myc-SfIAP or pcDNA3myc-CpIAP. Alternatively, cells were co-transfected with 0.35 μg pcDNA3-caspase-9-Flag and 2.1 μg of either SfIAP or CpIAP. […] In some cases, lysates were prepared from transfected cells, normalized for total protein content, and analyzed by SDS-PAGE/immunoblotting as described (Deveraux, Q., et al., (1997) supra; Deveraux, Q. L., et al. (1998) supra; Roy, N. et al. (1997) supra; Takahashi, R., et al., (1998), supra.).
Baculoviral IAPs have been reported to protect mammalian cells from some apoptotic stimuli (Hawkins, C. J. et al., (1996) Proc. Natl. Acad. Sci. USA 93, 13786-13790; Hawkins, C. et al., (1998) Cell Death and Differentiation 5, 569-576; Uren, A. G. et al., (1996) Proc. Natl. Acad. Sci. USA 93, 4974-4978). Tests were performed to determine whether SfIAP is also capable of functioning as an apoptosis suppressor in a mammalian cell context. […]
Plasmids encoding various IAPs were co-transfected with Bax or Fas into 293 cells and % apoptosis was determined 24-36 hours later.

[3] = tested on: caspase-3 and similar DEVD-cleaving proteases in cell extracts treated with cyto c; assay: Cell-free caspase activation induced by cyto c in HEK 293 cytosolic extracts; format: biochemical, human; conditions: for suppression of pro-caspase-3 processing (immunoblot): cyto c-treated extracts; for effect on hydrolysis of Ac-DEVD-AFC (caspase activity): recombinant protein, cell extracts treated with cyto c
Description: Caspase activity was assayed by release of 7-amino-4-trifluoromethyl-coumarin (AFC) from Ac-DEVD or Ac-LEHD-containing synthetic peptides (Calbiochem) using continuous-reading instuments as described (Quan, L. T. et al., (1995) J. Biol. Chem. 270:10377-10379).
Cytosolic extracts were prepared as described (Deveraux, Q., Takahashi, R., Salvesen, G. S. & Reed, J. C. (1997) Nature 388, 300-303) using human embryonic kidney (HEK) 293 cells. Cells were washed with ice-cold buffer A (20 mM HEPES pH 7.5, 10 mM KCl, 1.5 mM MgCl2, 1 mM EDTA and 1 mM DTT), suspended in 1 volume of buffer A, incubated on ice for 20 mins, and then disrupted by 15 passages through a 26-gauge needle. Cell extracts were purified by centrifugation at 15000 g for 12 mins and supernatants were stored at −80 ° C. For initiating caspase activation, either 100 nM of purified recombinant caspase-8 or 1 μM horse heart cytochrome c (Sigma) together with 1 mM dATP was added to extracts (Deveraux, Q. L., et al., (1998) EMBO J. 17, 2215-2223).
To further explore the mechanisms by which SfIAP and CpIAP inhibit mammalian apoptosis, a cell-free system in which exogenously added active caspase-8 or cyto c induces activation of caspase-3 and similar proteases, as measured by hydrolysis of Ac-DEVD-AFC (Quan, L. T. et al., (1995) J. Biol. Chem. 270, 10377-10379) was used. Caspase-8 and cyto c trigger the same apoptosis pathways in extracts which are activated by Fas and Bax in intact cells.

[4] = tested on: caspase-9-induced caspase activation and apoptosis in 293T cells; assay: Caspase-9 overexpression in 293T cells: caspase activity and apoptosis; format: cell-based, human; conditions: 24-36 hours after transfection
Description: as §1
To test this hypothesis, 293T cells were transfected with plasmids encoding pro-caspase-9 alone or in combination with SfIAP and CpIAP. Caspase activity and apoptosis were then assayed 24-36 hours later.

Row | Molecule | complementation of p35 deficiency (rescue of mutant virus replication, occlusion body formation) [1] | suppression of Fas-induced apoptosis [2] | suppression of pro-caspase-3 processing (immunoblot) [3] | effect on hydrolysis of Ac-DEVD-AFC (caspase activity) [3] | inhibition of caspase-9-induced apoptosis [4] | suppression of activation of downstream DEVD-cleaving caspases induced by overexpression of caspase-9 [4]
1 | B1 | complemented p35 deficiency | ineffective at suppressing Fas-induced apoptosis | suppressed the processing of pro-caspase-3 in cyto c-treated | completely blocked the hydrolysis of Ac-DEVD-AFC; also recorded: able to inhibit cyto c-induced activation of DEVD-cleaving caspases | inhibited caspase-9-induced apoptosis | markedly suppressed activation of downstream DEVD-cleaving caspases
2 | B2 | – | ineffective at suppressing Fas-induced apoptosis | suppressed the processing of pro-caspase-3 in cyto c-treated | completely blocked the hydrolysis of Ac-DEVD-AFC | inhibited caspase-9-induced apoptosis | markedly suppressed activation of downstream DEVD-cleaving caspases
